US20170306033A1 (Amgen, published 2017)

T1: human PAC1 receptor (human, UniProt P41586 21-468)
T1 sequence: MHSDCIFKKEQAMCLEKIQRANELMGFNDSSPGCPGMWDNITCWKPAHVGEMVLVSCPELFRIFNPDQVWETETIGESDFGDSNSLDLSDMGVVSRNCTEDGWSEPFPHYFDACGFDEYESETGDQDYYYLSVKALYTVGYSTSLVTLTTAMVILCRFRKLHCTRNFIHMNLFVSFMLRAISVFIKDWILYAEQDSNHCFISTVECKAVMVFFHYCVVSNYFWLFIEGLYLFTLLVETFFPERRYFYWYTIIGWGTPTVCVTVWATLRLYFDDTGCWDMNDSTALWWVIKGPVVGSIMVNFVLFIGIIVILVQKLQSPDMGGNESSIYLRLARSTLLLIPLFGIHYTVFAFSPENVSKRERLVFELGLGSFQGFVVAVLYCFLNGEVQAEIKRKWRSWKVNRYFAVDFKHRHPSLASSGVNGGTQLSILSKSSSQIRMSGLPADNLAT


Legend:
[1] = target: T1, human PAC1 receptor; test: cell-based or functional assay
[2] = target: human CGRP receptor (human, UniProt Q16602 23-461; O60894 27-148); test: cell-based or functional assay
Sequence of human CGRP receptor (Q16602 23-461 limits assumed, chain 1 of 2): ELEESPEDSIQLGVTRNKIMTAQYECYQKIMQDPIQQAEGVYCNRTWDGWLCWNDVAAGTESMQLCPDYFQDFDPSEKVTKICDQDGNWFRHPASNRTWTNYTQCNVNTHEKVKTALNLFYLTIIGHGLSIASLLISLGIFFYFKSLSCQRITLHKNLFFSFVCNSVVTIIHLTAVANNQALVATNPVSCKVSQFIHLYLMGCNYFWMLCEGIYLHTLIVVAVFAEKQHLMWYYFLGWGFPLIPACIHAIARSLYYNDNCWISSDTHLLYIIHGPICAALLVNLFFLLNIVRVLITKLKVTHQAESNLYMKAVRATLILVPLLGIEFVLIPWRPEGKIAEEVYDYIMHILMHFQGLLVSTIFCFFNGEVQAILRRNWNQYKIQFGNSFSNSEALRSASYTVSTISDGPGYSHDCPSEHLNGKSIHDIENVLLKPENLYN
Sequence of human CGRP receptor (O60894 27-148 limits assumed, chain 2 of 2): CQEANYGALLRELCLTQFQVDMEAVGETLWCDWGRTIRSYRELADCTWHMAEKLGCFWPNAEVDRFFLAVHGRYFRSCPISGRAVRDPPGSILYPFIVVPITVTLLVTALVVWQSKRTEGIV

Row | Binder | % inhibition of human PAC1 [1] | % inhibition of human CGRPR [2]
1 | iPS:327691 (bispecific antibody, human IgG1, kappa, lambda, N297G) light 1: DIQLTQSPSFLSASVGDRVTITCRASQSIGRSLHWYQQKPGKAPKLLIKYASQSLSGVPSRFSGSGSGTEFTLTISSLQPEDFATYYCHQSSRLPFTFGPGTKVDIKRTVAAPSVFIFPPSDEQLKSGTASVVCLLNNFYPREAKVQWKVDNALQSGNSQESVTEQDSKDSTYSLESTLTLSKADYEKHKVYACEVTHQGLSSPVTKSFNRGEC heavy 1: not shown light 2: QSVLTQPPSVSAAPGQKVTISCSGSSSNIGNNYVSWYQQLPGTAPKLLIYDNNKRPSGIPDRFSGSKSGTSTTLGITGLQTGDEADYYCGTWDSRLSAVVFGGGTKLTVLGQPKANPTVTLFPPSSEELQANKATLVCLISDFYPGAVTVAWKADGSPVKAGVETTKPSKQSNNKYAAKSYLSLTPEQWKSHRSYSCQVTHEGSTVEKTVAPTECS heavy 2: QVQLVESGGGVVQPGRSLRLSCAASGFTFSSFGMHWVRQAPGKGLEWVAVISFDGSIKYSVDSVKGRFTISRDNSKNTLFLQMNSLRAEDTAVYYCARDRLNYYESSGYYHYKYYGMAVWGQGTTVTVSSASTKGPSVFPLAPSSKSTSGGTAALGCLVKDYFPEPVTVSWNSGALTSGVHTFPAVLQSSGLYSLESVVTVPSSSLGTQTYICNVNHKPSNTKVDKKVEPKSCDKTHTCPPCPAPELLGGPSVFLFPPKPKDTLMISRTPEVTCVVVDVSHEDPEVKFNWYVDGVEVHNAKTKPCEEQYGSTYRCVSVLTVLHQDWLNGKEYKCKVSNKALPAPIEKTISKAKGQPREPQVYTLPPSRKEMTKNQVSLTCLVKGFYPSDIAVEWESNGQPENNYKTTPPVLKSDGSFFLYSKLTVDKSRWQQGNVFSCSVMHEALHNHYTQKSLSLSPGK | 25% | 73%
2 | iPS:327693 (bispecific antibody, human IgG1, kappa, lambda, N297G) light 1: EIVLTQSPATLSLSPGERATLSCRASQSVGRSLHWYQQKPGQAPRLLIKYASQSLSGIPARFSGSGSGTDFTLTISSLEPEDFAVYYCHQSSRLPFTFGPGTKVDIKRTVAAPSVFIFPPSDEQLKSGTASVVCLLNNFYPREAKVQWKVDNALQSGNSQESVTEQDSKDSTYSLESTLTLSKADYEKHKVYACEVTHQGLSSPVTKSFNRGEC heavy 1: not shown light 2: QSVLTQPPSVSAAPGQKVTISCSGSSSNIGNNYVSWYQQLPGTAPKLLIYDNNKRPSGIPDRFSGSKSGTSTTLGITGLQTGDEADYYCGTWDSRLSAVVFGGGTKLTVLGQPKANPTVTLFPPSSEELQANKATLVCLISDFYPGAVTVAWKADGSPVKAGVETTKPSKQSNNKYAAKSYLSLTPEQWKSHRSYSCQVTHEGSTVEKTVAPTECS heavy 2: QVQLVESGGGVVQPGRSLRLSCAASGFTFSSFGMHWVRQAPGKGLEWVAVISFDGSIKYSVDSVKGRFTISRDNSKNTLFLQMNSLRAEDTAVYYCARDRLNYYESSGYYHYKYYGMAVWGQGTTVTVSSASTKGPSVFPLAPSSKSTSGGTAALGCLVKDYFPEPVTVSWNSGALTSGVHTFPAVLQSSGLYSLESVVTVPSSSLGTQTYICNVNHKPSNTKVDKKVEPKSCDKTHTCPPCPAPELLGGPSVFLFPPKPKDTLMISRTPEVTCVVVDVSHEDPEVKFNWYVDGVEVHNAKTKPCEEQYGSTYRCVSVLTVLHQDWLNGKEYKCKVSNKALPAPIEKTISKAKGQPREPQVYTLPPSRKEMTKNQVSLTCLVKGFYPSDIAVEWESNGQPENNYKTTPPVLKSDGSFFLYSKLTVDKSRWQQGNVFSCSVMHEALHNHYTQKSLSLSPGK | 82% | 76%
3 | iPS:327688 (bispecific antibody, human IgG1, kappa, N297G) light 1: EIVLTQSPATLSLSPGERATLSCRASQSVGRSLHWYQQKPGQAPRLLIKYASQSLSGIPARFSGSGSGTDFTLTISSLEPEDFAVYYCHQSSRLPFTFGPGTKVDIKRTVAAPSVFIFPPSDEQLKSGTASVVCLLNNFYPREAKVQWKVDNALQSGNSQESVTEQDSKDSTYSLESTLTLSKADYEKHKVYACEVTHQGLSSPVTKSFNRGEC heavy 1: not shown light 2: EIVLTQSPGTLSLSPGERATLSCRASQSVSSGYLTWYQQKPGQAPRLLIYGASSRATGIPDRFSGSGSGTDFTLTISRLEPEDFAVYYCQQYGNSLSRFGQGTKLEIKRTVAAPSVFIFPPSDEQLKSGTASVVCLLNNFYPREAKVQWKVDNALQSGNSQESVTEQDSKDSTYSLKSTLTLSKADYEKHKVYACEVTHQGLSSPVTKSFNRGEC heavy 2: not shown | 103% | 89%

The remaining lines, values ahead:

Row | % inhibition of human PAC1 [1] | % inhibition of human CGRPR [2] | Binder
4 | 10% | 87% | iPS:327696 (bispecific antibody, human IgG1, kappa, lambda, N297G) light 1: not shown heavy 1: not shown light 2: QSVLTQPPSVSAAPGQKVTISCSGSSSNIGNNYVSWYQQLPGTAPKLLIYDNNKRPSGIPDRFSGSKSGTSTTLGITGLQTGDEADYYCGTWDSRLSAVVFGKGTKLTVLGQPKANPTVTLFPPSSEELQANKATLVCLISDFYPGAVTVAWKADGSPVKAGVETTKPSKQSNNKYAAKSYLSLTPEQWKSHRSYSCQVTHEGSTVEKTVAPTECS heavy 2: QVQLVESGGGVVQPGRSLRLSCAASGFTFSSFGMHWVRQAPGKELEWVAVISFDGSIKYSVDSVKGRFTISRDNSKNTLFLQMNSLRAEDTAVYYCARDRLNYYESSGYYHYKYYGMAVWGQGTTVTVSSASTKGPSVFPLAPSSKSTSGGTAALGCLVKDYFPEPVTVSWNSGALTSGVHTFPAVLQSSGLYSLESVVTVPSSSLGTQTYICNVNHKPSNTKVDKKVEPKSCDKTHTCPPCPAPELLGGPSVFLFPPKPKDTLMISRTPEVTCVVVDVSHEDPEVKFNWYVDGVEVHNAKTKPCEEQYGSTYRCVSVLTVLHQDWLNGKEYKCKVSNKALPAPIEKTISKAKGQPREPQVYTLPPSRKEMTKNQVSLTCLVKGFYPSDIAVEWESNGQPENNYKTTPPVLKSDGSFFLYSKLTVDKSRWQQGNVFSCSVMHEALHNHYTQKSLSLSPGK
5 | 103% | 87% | iPS:327706 (bispecific antibody, human IgG1, kappa, lambda, N297G) light 1: EIVLTQSPATLSLSPGERATLSCRASQSVGRSLHWYQQKPGQAPRLLIKYASQSLSGIPARFSGSGSGTDFTLTISSLEPEDFAVYYCHQSSRLPFTFGPGTKVDIKRTVAAPSVFIFPPSDEQLKSGTASVVCLLNNFYPREAKVQWKVDNALQSGNSQESVTEQDSKDSTYSLESTLTLSKADYEKHKVYACEVTHQGLSSPVTKSFNRGEC heavy 1: not shown light 2: QSVLTQPPSVSAAPGQKVTISCSGSSSNIGNNYVSWYQQLPGTAPKLLIYDNNKRPSGIPDRFSGSKSGTSATLGITGLQTGDEADYYCGTWDSRLSAVVFGGGTKLTVLGQPKANPTVTLFPPSSEELQANKATLVCLISDFYPGAVTVAWKADGSPVKAGVETTKPSKQSNNKYAAKSYLSLTPEQWKSHRSYSCQVTHEGSTVEKTVAPTECS heavy 2: QVQLVESGGGVVQPGRSLRLSCAASGFTFSSFGMHWVRQAPGKGLEWVAVISFDGSIKYSVDSVKGRFTISRDNSKNTLFLQMNSLRAEDTAVYYCARDRLNYYDSSGYYHYKYYGMAVWGQGTTVTVSSASTKGPSVFPLAPSSKSTSGGTAALGCLVKDYFPEPVTVSWNSGALTSGVHTFPAVLQSSGLYSLESVVTVPSSSLGTQTYICNVNHKPSNTKVDKKVEPKSCDKTHTCPPCPAPELLGGPSVFLFPPKPKDTLMISRTPEVTCVVVDVSHEDPEVKFNWYVDGVEVHNAKTKPCEEQYGSTYRCVSVLTVLHQDWLNGKEYKCKVSNKALPAPIEKTISKAKGQPREPQVYTLPPSRKEMTKNQVSLTCLVKGFYPSDIAVEWESNGQPENNYKTTPPVLKSDGSFFLYSKLTVDKSRWQQGNVFSCSVMHEALHNHYTQKSLSLSPGK
6 | 75% | 87% | iPS:327694 (bispecific antibody, human IgG1, kappa, lambda, N297G) light 1: DIQMTQSPSSLSASVGDRITITCRASQSISRYLNWYQQKPGKAPKLLIYAASSLQSGIPSRFSGSGSGTDFTLTINSLQPEDFATYFCQQSYSPPFTFGEGTKVDIKRTVAAPSVFIFPPSDEQLKSGTASVVCLLNNFYPREAKVQWKVDNALQSGNSQESVTEQDSKDSTYSLESTLTLSKADYEKHKVYACEVTHQGLSSPVTKSFNRGEC heavy 1: not shown light 2: QSVLTQPPSVSAAPGQKVTISCSGSSSNIGNNYVSWYQQLPGTAPKLLIYDNNKRPSGIPDRFSGSKSGTSTTLGITGLQTGDEADYYCGTWDSRLSAVVFGKGTKLTVLGQPKANPTVTLFPPSSEELQANKATLVCLISDFYPGAVTVAWKADGSPVKAGVETTKPSKQSNNKYAAKSYLSLTPEQWKSHRSYSCQVTHEGSTVEKTVAPTECS heavy 2: QVQLVESGGGVVQPGRSLRLSCAASGFTFSSFGMHWVRQAPGKELEWVAVISFDGSIKYSVDSVKGRFTISRDNSKNTLFLQMNSLRAEDTAVYYCARDRLNYYESSGYYHYKYYGMAVWGQGTTVTVSSASTKGPSVFPLAPSSKSTSGGTAALGCLVKDYFPEPVTVSWNSGALTSGVHTFPAVLQSSGLYSLESVVTVPSSSLGTQTYICNVNHKPSNTKVDKKVEPKSCDKTHTCPPCPAPELLGGPSVFLFPPKPKDTLMISRTPEVTCVVVDVSHEDPEVKFNWYVDGVEVHNAKTKPCEEQYGSTYRCVSVLTVLHQDWLNGKEYKCKVSNKALPAPIEKTISKAKGQPREPQVYTLPPSRKEMTKNQVSLTCLVKGFYPSDIAVEWESNGQPENNYKTTPPVLKSDGSFFLYSKLTVDKSRWQQGNVFSCSVMHEALHNHYTQKSLSLSPGK
7 | 56% | 88% | iPS:327705 (bispecific antibody, human IgG1, kappa, lambda, N297G) light 1: DIQLTQSPSFLSASVGDRVTITCRASQSIGRSLHWYQQKPGKAPKLLIKYASQSLSGVPSRFSGSGSGTEFTLTISSLQPEDFATYYCHQSSRLPFTFGPGTKVDIKRTVAAPSVFIFPPSDEQLKSGTASVVCLLNNFYPREAKVQWKVDNALQSGNSQESVTEQDSKDSTYSLESTLTLSKADYEKHKVYACEVTHQGLSSPVTKSFNRGEC heavy 1: not shown light 2: QSVLTQPPSVSAAPGQKVTISCSGSSSNIGNNYVSWYQQLPGTAPKLLIYDNNKRPSGIPDRFSGSKSGTSATLGITGLQTGDEADYYCGTWDSRLSAVVFGGGTKLTVLGQPKANPTVTLFPPSSEELQANKATLVCLISDFYPGAVTVAWKADGSPVKAGVETTKPSKQSNNKYAAKSYLSLTPEQWKSHRSYSCQVTHEGSTVEKTVAPTECS heavy 2: QVQLVESGGGVVQPGRSLRLSCAASGFTFSSFGMHWVRQAPGKGLEWVAVISFDGSIKYSVDSVKGRFTISRDNSKNTLFLQMNSLRAEDTAVYYCARDRLNYYDSSGYYHYKYYGMAVWGQGTTVTVSSASTKGPSVFPLAPSSKSTSGGTAALGCLVKDYFPEPVTVSWNSGALTSGVHTFPAVLQSSGLYSLESVVTVPSSSLGTQTYICNVNHKPSNTKVDKKVEPKSCDKTHTCPPCPAPELLGGPSVFLFPPKPKDTLMISRTPEVTCVVVDVSHEDPEVKFNWYVDGVEVHNAKTKPCEEQYGSTYRCVSVLTVLHQDWLNGKEYKCKVSNKALPAPIEKTISKAKGQPREPQVYTLPPSRKEMTKNQVSLTCLVKGFYPSDIAVEWESNGQPENNYKTTPPVLKSDGSFFLYSKLTVDKSRWQQGNVFSCSVMHEALHNHYTQKSLSLSPGK
